Measured values from PMC3314502.

Target: FLAG-PICK1 (rat) (UniProt Q9EP80)
Test: pull-down

UniProt Q9EP80, sequence (Q9EP80 whole entry): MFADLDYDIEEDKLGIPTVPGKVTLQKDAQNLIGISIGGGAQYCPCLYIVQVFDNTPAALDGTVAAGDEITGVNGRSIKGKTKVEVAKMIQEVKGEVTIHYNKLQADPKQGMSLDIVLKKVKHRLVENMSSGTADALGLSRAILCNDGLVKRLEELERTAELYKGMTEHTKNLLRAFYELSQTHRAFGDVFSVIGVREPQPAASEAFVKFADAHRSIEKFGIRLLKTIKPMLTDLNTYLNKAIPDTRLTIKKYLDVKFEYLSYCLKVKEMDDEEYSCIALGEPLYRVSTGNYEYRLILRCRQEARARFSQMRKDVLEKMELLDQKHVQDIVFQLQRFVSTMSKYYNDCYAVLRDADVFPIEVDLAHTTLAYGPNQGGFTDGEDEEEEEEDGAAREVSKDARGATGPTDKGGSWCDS

Which percent of PICK1 retained by GST-ct-GluR5 (2b) with the peptide does the source give for “pep2-EVKI, point mutant of the C-terminal 11 amino acids of GluR2 (from UniProt P19491 873-883) (peptide)” here?
The percent of PICK1 retained by GST-ct-GluR5 (2b) with the peptide was 8%.
